Laboratory results published in the domain aggregation screens of Martell et al. (2025).

Experiment: soluble fraction after stress (log2 fold change); higher = more stays soluble; pooled small domains, quantitative proteomics
Settings: stress: 75 degC
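Further: 20 min heating vs room temperature control held 20 min.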

Sequence: HMDSIDVQQKKLLTDIELGNIEGIKLFLKRHNNTINFLTIKGFHPLVYAVRNNNMEIVNLFLTT
- soluble fraction (log2): 0.149

Sequence: HMDSIGTQIRKLREEAEMPLRKLSALLDIDQSTLSKIERDERRANTQMIEQIAKIFKVNKEQLLVA
- soluble fraction (log2): -0.77

Sequence: HMDSKPNDLLFVYVSQLIRSLTLNSSKKDSELADELEVSISQIRIWLKKLINEQLIVKESKPVKYRWKG
- soluble fraction (log2): -2.84

Sequence: HMDSLARKTVNGAEFYIYPVESAEGFYSLRRKFGVSQEEVIKYNPSAQNGLKSGQVLLIPVT
- soluble fraction (log2): -0.298

Sequence: HMDSLQDFAYEEIKKRIQNGEYAPGTKLNTQEISDSLGISRSPVLAAINRLIALGLVEATPRKGTTVA
- soluble fraction (log2): -0.116

Sequence: HMDSLSGQQGRVLEEINGFLQTGKVLLNGMEWSAVSKQPEDILPVDTEVVVVRVEGAHLVVKKA
- soluble fraction (log2): -0.286

Sequence: HMDSPRITMDQLRIGLYVYLDLTWFQHPFAFSHFKINSEDQIKTILGLGLKSVRYDPALSDPV
- soluble fraction (log2): -2.91

Sequence: HMDSQSVFADLVKSLSQKIASIPVWFEYTKNEQYDLISSYVSAKLKDLGVEFSQEEKEKFITMFMNS
- soluble fraction (log2): -0.609

Sequence: HMDSRQIIAALQARYADETGITALKIKFNNVLGYFVDVPARYGDPLMKPPLSETFIHRQTLASNVRF
- soluble fraction (log2): -0.0679

Sequence: HMDSSITLMRMYIPKGHNWENKLISDVSMPTNSLALMIKRNGTTIIPKGDTMILAKDTLILSVPSYEPS
- soluble fraction (log2): -2.6

Sequence: HMDSSNLSLIAGVGPTIEKKLRAAGITSWEQIAAWTEADVAKYDEELNLRGRITRDEWIEQAKELLAGKPP
- soluble fraction (log2): 0.0267

Sequence: HMDSTLDLVATQGGRLDQVLAEMIPEHSRNRLQHWIKAGRVLVDGQPVLEPKHKIYGGEDLAVRVD
- soluble fraction (log2): 0.215

Sequence: HMDSVSAVRTTHLNSYVLLLEKDGMAAATISRYIASMKGFFEYLFREHMIEEDPAFTLKPPKV
- soluble fraction (log2): 0.009

Sequence: HMDSVVPNVVGMTAEKANKALTDAGLNVKITGATIGSGAVVHSQSIPAGTVTSKGTVVSIEMRFAAAEGD
- soluble fraction (log2): -0.242

Sequence: HMDSYSILGIEKESSMEDIEKAYIDKISKIKKEVKNEKNAAAFEAVLTKAYNDILSQKENISEEQELAE
- soluble fraction (log2): 0.0885

Sequence: HMDTAGSVAIVSKSVIENGFGEIKYKGTYFKAQSDVYIPKDQMVKVIGKGDEQGSFLIVEKLN
- soluble fraction (log2): 0.0706

Sequence: HMDTIASESVRNRIEELISNENPKKPLSDQALVKMLQEFDIKIARRTVAKYREMLKIPPSSKRKQV
- soluble fraction (log2): -0.265

Sequence: HMDTIGSKVLAFLAGNLLDPTPFNYRFGYLYLNRTSKVIVEETDTYIDSGMRMTQEAVAEIMQKFAQ
- soluble fraction (log2): -4.12

Sequence: HMDTITMAGERYAVSDLEKVSGDIFEKAFGFEIDPKTADAKDVLPTMPKSDVDLFKKLSGIKP
- soluble fraction (log2): 0.401

Sequence: HMDTIYPFNPNFIDDYKGYVLGLNTNEIDRLLKYRSKGNWINSAEDFKKVTGIDDALLNKLSKSFKFPDWL
- soluble fraction (log2): -1.81

Sequence: HMDTLRPLGRYQNVHLTKQELTALQSEFSDWSERIERLSSYMASTGRKYQNHAATIRLWAEKDK
- soluble fraction (log2): 0.0841

Sequence: HMDTMINLIGLNLKKAKKELSNLGVNVKKVRYKKSSVYDEGVVIDQSIEAGRNIKNGDFITITVSSGKA
- soluble fraction (log2): -0.473

Sequence: HMDTNEPFAQLQLRFTDPIQYDYEVIRPVVLFSQSVTDRSDETEMPRTTVREKARQFVTEGMLGLVDK
- soluble fraction (log2): 0.166

Sequence: HMDTNTIIGLRIKALRTEKKYTLKYLSENSGLSIGFLSQLERGMTSVAIDSLDKISKVLDVELSSFFN
- soluble fraction (log2): -3.05

Sequence: HMDTPMQEAVLQRLRDKVAQAAAGSKLPTVRQLIADYGVGQHVIQAALEKLRTEGLITSHVGKGTFVG
- soluble fraction (log2): 0.325

Sequence: HMDTPMYMAIIEEVRFQIANEILKEGEQLPSIRNLAKTLKVSVITVKRAYKELEEAGYITTIPAKGSKVS
- soluble fraction (log2): -1.16

Sequence: HMDTQKYDLNDDGRFDVQDVTYLQIKIAGDGELTDNQKKIADYNNDGKIDVQDVTSAQMLIS
- soluble fraction (log2): 0.023

Sequence: HMDTSADEVKQLIASFVEQEDKRKPLSDQKIVELLAEKEQKISRRTVAKYRDALNIPSSSKRKRF
- soluble fraction (log2): 0.469

Sequence: HMDTSISHLVGRTGEAVTDLRPAGTVMIDGELYDARATEGFIEKGEIVKAIKYQYGQLNVRRVSK
- soluble fraction (log2): 0.00609

Sequence: HMDTVSYSTLLRDIDAKEIKQLDLVPGRREVRVQYNDGRRVTVPVFANDNQILRAAESSGTPLTVV
- soluble fraction (log2): 0.0297

Sequence: HMDVADITGTRKAAILLLTMDEELSKELLKEFERHEIEAIGKEIANIKYIPENIVKQVHSEFLKNINKS
- soluble fraction (log2): -0.282

Sequence: HMDVFTAKTASHIQELREKLGQQAVFGRSDVQNALGLKATRSSALLREMAEHGIIEPVTGYGKGRYHFRS
- soluble fraction (log2): 0.204

Sequence: HMDVIDDAQAMEIALEDAGLSMDDLDRYELELHTKRSELVYSIELKSGTEEYEYDLRAADGTILKRDTDF
- soluble fraction (log2): 0.0166

Sequence: HMDVLDVADNVNDDMSFADAFAAARSEVGAGGIFYWHGKAYGTYYENEWAGMSEEDKADYWDAVARTTS
- soluble fraction (log2): -0.144

Sequence: HMDVLSPEEWIEFRTAYNNNRYISQYGSKGATIEDDYATRLAMIGGKESYYFLNDPRWTEPGYGNLK
- soluble fraction (log2): -0.5

Sequence: HMDVMNEIQQKAFDIYIQSASLKNDFTPISERALAKKLHDMGLKSSMSAIGRWKKKFGWVQSLQNKVTLA
- soluble fraction (log2): -0.173

Sequence: HMDVNKDLLGETLEKAKSYKADDWRKASYEALQKAIVEAEAVYKDEEADQVAVDRKVAALNKAINNLEAKG
- soluble fraction (log2): 0.475

Sequence: HMDVNPETLSYYIERADISLDELRTSVKGIDLFLTGEKQPTFNQISNIAKKLNIPTGLLLINKPIEI
- soluble fraction (log2): -0.645

Sequence: HMDVNSRIRQFLKKMKITVQTFESSIGKTNGYIAHTKSPTAGVLAEIAKVYPDLNLDWLITGEGEMLKN
- soluble fraction (log2): -1.42

Sequence: HMDVPTSSITEVKKSPMDVFAQARKAETGVYIFNREKIAGVMLTKEQYEALVEELNTLRDTL
- soluble fraction (log2): -0.68

Sequence: HMDVQEILGALSPDEKAAIGQLTSGEKHIDQIIAATRLPAARITSALTLLQIKGYVRALPGKRFSLTEKQ
- soluble fraction (log2): -1.87

Sequence: HMDVQPTTTKTMFYTVQQGETLFSISRKFGISVEEITKKNPLASSGLTVGMELLLPEKKEINSTIQS
- soluble fraction (log2): 0.0149

Sequence: HMDVSEITTIKWIIKETKLGINEKILIYVNSKNFTVETLMEGFEIMSKYLVENVSSDKIVYIKN
- soluble fraction (log2): 0.0119

Sequence: HMDVTDRLARRLQGLRSAQGLSLDALAARSGVSRSNISLIERGQSSPTATVLDKLSAALGVTLAALFEEP
- soluble fraction (log2): -1.04

Sequence: HMDWVAYGAELRRRRLLAGWTVAELSRRINLSGMTIHQIEKGRGRLRPSELTLAKLAAALGMPTP
- soluble fraction (log2): -3.58

Sequence: HMDYEVPEELEEKFSENPQFKEAFDNLTPGRQHQYIYHISQAKRSQTRINRIEKYYEHILNGKGMQD
- soluble fraction (log2): 0.111

Sequence: HMDYGTATASAILYLEKIDPENPYLLLAKDTITTNPKMSVNFALKGIIESKKGEKEENLNKALEIMSSL
- soluble fraction (log2): -0.144

Sequence: HMDYKSNLQEMVQTTKKSVTYELVKEEGPAHDRTFTMNVIVDGIVLGTGTAKSKKEAEQEAAHQALEKKA
- soluble fraction (log2): -0.253

Sequence: HMDYTGIPQSLLDLMKKDNIMPMQIQRAVAERNYYPVDTPISNYDPMFIEAKLVGAWDQVLNVISHLDLP
- soluble fraction (log2): -1.25

Sequence: HMDYTPIEVKDLPQAIQDALTKNFSEYTVKSAAYQEDEDGVKIYQVTVVDEEGTEANIFFTEKGE
- soluble fraction (log2): 0.206

Sequence: HMEADERRNEILDAAETLITEKGYSKTTIIDILNQVGIAKGTFYYYFKSKEEVMDAIIERFI
- soluble fraction (log2): -2.41

Sequence: HMEAEGLDFAPMPGEIGKKLWQEVSKEAWAGWLKHQTMLVNENRLSFVDPAARKYLTEQTEAYFFG
- soluble fraction (log2): 0.131

Sequence: HMEAEMLYQVKVKITNLVIRSGAGAIYPIVKRYASGVLPIYEEKNGYGKIAVGQWISLSPEFVERVD
- soluble fraction (log2): -3.13

Sequence: HMEAEPRLLDLPPGTRAGRLDKVLAQLLPEHSRSRLQGWIERGGVLVNGKEASVRQVVGPGDQLTVWEEAA
- soluble fraction (log2): -0.0507

Sequence: HMEAEQLEAIRSALQQLSDMNRTVFNLHVVDGYKHEEIAAMLNITTGTSKAHLHRAKKRLRELID
- soluble fraction (log2): -1.04

Sequence: HMEAEVIKTASDMADRNGLHNVSLKAIAENLGIRTPSLYNHIGSLDELLREIAHSGMRTMNE
- soluble fraction (log2): -0.0854

Sequence: HMEAFAEAVASMLRKLQPEFAIDLVGPRELLVNGRRLDLENLYRMVNHEPVRGQEIVEHYLDQLFAG
- soluble fraction (log2): -1.17

Sequence: HMEAGLRMPEQLTAFSALALLQKVRDSGPLTDAQKEQLDADVLRIEASHFGKADREALELEEILKQWLSRV
- soluble fraction (log2): 0.149

Sequence: HMEAKSSTKALLDVVLGRNGVSTANVAKSLNISVQNASTRLKKLSSEGVIMRSEVSSPTGGIEFIYS
- soluble fraction (log2): 0.109

Sequence: HMEAKTSNPDYHARLGLTEGEGNDSALGVSVKAAEGGFGLLFGNKVGSDQLVRFANEDQVWLVNRALS
- soluble fraction (log2): 0.165

Sequence: HMEALNIEQKKVEIINVLLEKGKGKGRLSYKEISDQIDTVELDKDQMDELYETLMTNGIEIV
- soluble fraction (log2): 0.00136

Sequence: HMEALPSNLRRLRLEAQLTLDRLGALSGVSRAMISKIERGASVPTATMLGKLAAALQVSLSQLL
- soluble fraction (log2): -1.18

Sequence: HMEAMITEVKRINYGLISDISKSLDPFKSEGGHIIVDKRTNTFILTDLRANIEKMLWSIEIMD
- soluble fraction (log2): -0.196

Sequence: HMEAPNELLVPEGARPARADRVLAAAFPEHSRTALQRAFDAGLVRRANLVLSRDTAVAGGDRIAFSLPAV
- soluble fraction (log2): 0.0788

Sequence: HMEARYQLREVSLDGLRSGMILNADVLSTDGVLMARKGLEVSGLLRSRLEAFAKMERIEPTFKVLVPIAPP
- soluble fraction (log2): -2.19

Sequence: HMEASSTAIQAMIRRLIDDENPRKPLSDAKLADLLKSSGIPVARRTVAKYREAMNISASHERVRI
- soluble fraction (log2): -0.793

Sequence: HMEATEFYLEDLTGQMYNDVVNDEKYAGKIVFEKEEVQSDGEEAIGQILNQRPAGNMNVRIGTTVTLVVNA
- soluble fraction (log2): 0.242

Sequence: HMEATVGSRVRLARIGLTLTQKQLAQAVGVSANHLAMVERGSKHASEDLLQRIATATHTTYEWLMGTSEHQ
- soluble fraction (log2): -2.43

Sequence: HMEAVIENAAIIKQNSGGYAVRATVNGVDLGMKPVERATALLYFSLTDKLEKDRLLSHTLQKTYGDLSA
- soluble fraction (log2): -0.212

Sequence: HMEAYLPVTVVSDGKILTGNLEKAGKNEKWLENVLSELKTDVKNTLLLTVDPKDGLIFYPKG
- soluble fraction (log2): 0.408

Sequence: HMEAYMVPNVKNKTLNEAQQALSNQKLKGLVIDSSYVKGVPDGMVLDQNPAGGARVKEGRTIYLTVTTS
- soluble fraction (log2): 0.237

Sequence: HMEDADERRALEVLNQLLDLPEREQEAALAALSLPPALARRVRSLLSVQTRAADLFDTAPSP
- soluble fraction (log2): 0.0142

Sequence: HMEDAFLQRLISIIEANLSNVDFNVKMLAEQLNMSQPTLYRKVKQRSELSVIDMIRSIRILSLIHISEPTR
- soluble fraction (log2): -1.07

Sequence: HMEDDRLIQNLLLTAKNLVMDVGRMDESALAENEDTVRTAMLFALGYLYENRSNPDYHKLTLNLRSILFA
- soluble fraction (log2): -0.38

Sequence: HMEDEISLGAINVPRGSVIVTAGGARLVEGSDYTVDYYSGTVKILNKSLLDAGTPINVSLET
- soluble fraction (log2): -0.0249

Sequence: HMEDETAKVLRLLAENNGYLPYNDKSDPTDIYAFFGMSKKAFKMTTGNLYKQKKIQFTQTGIQLIE
- soluble fraction (log2): -1.77

Sequence: HMEDEVSSSAAYQALLEKGVSKTLARSWVIDYGEAYVLDKVDLTTSQAARGKIKSSTAGFLKAAIEEDFHN
- soluble fraction (log2): -0.0992
